Publication PMC4534181

Target: wild-type α1-antitrypsin (recombinant) (human) (UniProt P01009)
Assay: native MS; 15 μM α1-antitrypsin incubated with TTAI at peptide:protein molar ratios 0.1:1 to 5:1 for 3 days at 37.5°C in phosphate buffer pH 7.4; exchanged into 200 mM ammonium acetate pH 8; nanoelectrospray, Synapt

UniProt P01009, sequence (P01009 25-418): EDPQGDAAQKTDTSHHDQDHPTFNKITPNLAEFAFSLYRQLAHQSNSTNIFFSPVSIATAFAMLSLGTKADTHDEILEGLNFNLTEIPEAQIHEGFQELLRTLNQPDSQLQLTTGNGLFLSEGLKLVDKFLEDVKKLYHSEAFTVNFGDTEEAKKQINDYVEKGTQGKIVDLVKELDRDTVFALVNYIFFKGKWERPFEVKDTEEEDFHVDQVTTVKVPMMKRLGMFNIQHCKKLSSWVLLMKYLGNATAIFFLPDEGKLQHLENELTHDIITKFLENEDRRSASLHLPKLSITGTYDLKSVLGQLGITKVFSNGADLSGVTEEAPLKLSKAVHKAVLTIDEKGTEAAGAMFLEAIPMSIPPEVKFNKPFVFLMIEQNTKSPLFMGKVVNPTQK

stoichiometry N: 2 copies
Binder: Ac-TTAI-NH2 [reactive loop analogue tetrapeptide Thr-Thr-Ala-Ile (TTAI)]
